Assay [1] addresses ePTEN-GFP (expressed in HEK293) (human) (UniProt P60484). The assay is described as follows: co-IP; PTEN-GFP constructs from HEK293 lysates held on anti-GFP beads (two hours), then 400 ul whole-cell lysate of HEK293 expressing HA-NEDD4-1 added for three hours; three washes; blots with anti-GFP and anti-HA; band intensity quantified (n = 3).
The target of assay [2] is nPTEN-GFP (expressed in HEK293) (human) (UniProt P60484). Described as above.

In the case of “HA-NEDD4-1 (from UniProt P46934 1-1319) (enzyme)”, the increase of co-precipitated NEDD4-1 against GFP alone and wild-type PTEN-GFP in assay [1] and in assay [2] was 2.5 throughout.

These data come from PMC4517176.
